How the values were obtained:
immunoglobulin G (IgG) = assay: electrochemical displacement from graphene oxide (SWV); settings: Binding buffer, pH and temperature not given in the material; aptamer stock 2.0 uM in sterile deionized water; ferricyanide redox probe; fluorescence ex 480 / …
hemoglobin (Hb) = assay: as above; settings: Binding buffer, pH and temperature not given in the material; aptamer stock 2.0 uM in sterile deionized water; ferricyanide redox probe; fluorescence ex 480 / …

“TGCGGTTCGTGCGGTTGTAGTAC [Modified G8-FAM]” gave a binding signal (% current response) (immunoglobulin G (IgG)) of 29.5 and a binding signal (% current response) (hemoglobin (Hb)) of 11.7.

Reference: PMC8002523
